Source: paper PMC11180174 (Nature Communications, 2024)

B1: LY-CoV1404 (also known as bebtelovimab) (antibody, V domains shown)
VH: QITLKESGPTLVKPTQTLTLTCTFSGFSLSISGVGVGWLRQPPGKALEWLALIYWDDDKRYSPSLKSRLTISKDTSKNQVVLKMTNIDPVDTATYYCAHHSISTIFDHWGQGTLVTVSS
VL: QSALTQPASVSGSPGQSITISCTATSSDVGDYNYVSWYQQHPGKAPKLMIFEVSDRPSGISNRFSGSKSGNTASLTISGLQAEDEADYYCSSYTTSSAVFGGGTKLTVL
notes: control antibody
B2: LY-CoV1404 (bebtelovimab) (antibody, V domains shown)
VH: B1 VH
VL: B1 VL
B3: neutralizing antibody 7F3 (antibody, V domains shown)
VH: EVQLVESGGGLVKPGRSLRLSCTASGFTFGDYAMSWFRQAPGKGLEWVGFIRSKAYGGTTEYAASVKGRFTISRDDSKSIAYLQMNSLKTEDTAVYYCTRDRYARYDILTGLSPAGADYFYYAMDVWGQGTTVTVSS
VL: EIVLTQSPATLSLSPGERATLSCRASQSVSSYLAWYQQKPGQAPRLLIYDASNRATGIPARFSGSGSGTDFTLTISSLEPEDFAVYYCQQRSNWPQYTFGQGTKLEIK
B4: 7F3 neutralizing antibody (IgG) (antibody, V domains shown)
VH: B3 VH
VL: B3 VL

What was measured:
Experiment in all cases: BLI
Details in all cases: both partners purified
[1] = target: T1, SARS-CoV-2 Delta RBD, His-tagged (SARS-CoV-2 Delta (B.1.617.2), strain)
T1 construct: not shown: 8xHis, C-terminal, kept

[2] = target: T2, SARS-CoV-2 Omicron BA.5 RBD, His-tagged (SARS-CoV-2 Omicron BA.5, strain)
T2 construct: not shown: 8xHis, C-terminal, kept

[3] = target: T3, SARS-CoV-2 Omicron BA.1 RBD, His-tagged (SARS-CoV-2 Omicron BA.1, strain)
T3 construct: not shown: 8xHis, C-terminal, kept

[4] = target: T4, SARS-CoV-2 Omicron BF.7 RBD, His-tagged (SARS-CoV-2 Omicron BF.7, R346T)
T4 construct: not shown: 8xHis, C-terminal, kept

[5] = target: T5, SARS-CoV-2 Delta spike RBD-His (SARS-CoV-2 Delta (B.1.617.2), strain)
T5 construct: not shown: His8, C-terminal, kept

[6] = target: T6, SARS-CoV-2 Omicron BF.7 spike RBD-His (SARS-CoV-2 Omicron BF.7, strain)
T6 construct: not shown: His8, C-terminal, kept

[7] = target: T7, SARS-CoV-2 Omicron BA.1 spike RBD-His (SARS-CoV-2 Omicron BA.1, strain)
T7 construct: not shown: His8, C-terminal, kept

[8] = target: T8, SARS-CoV-2 Omicron BA.5 spike RBD-His (SARS-CoV-2 Omicron BA.5, strain)
T8 construct: not shown: His8, C-terminal, kept

[9] = target: T9, SARS-CoV-2 Omicron XBB.1.16 RBD, His-tagged (SARS-CoV-2 Omicron XBB.1.16, R346T | L368I | V445P | T478R | F486P | F490S)
T9 construct: not shown: 8xHis, C-terminal, kept

[10] = target: T10, SARS-CoV-2 Omicron XBB RBD, His-tagged (SARS-CoV-2 Omicron XBB, R346T | L368I | V445P | F486S | F490S)
T10 construct: not shown: 8xHis, C-terminal, kept

[11] = target: T11, SARS-CoV-2 Omicron XBB spike RBD-His (SARS-CoV-2 Omicron XBB, strain)
T11 construct: not shown: His8, C-terminal, kept

[12] = target: T12, SARS-CoV-2 Omicron XBB.1.16 spike RBD-His (SARS-CoV-2 Omicron XBB.1.16, R346T | L368I | V445P | F486P | F490S | T478R)
T12 construct: not shown: His8, C-terminal, kept

Binder	Kd [1] [nM]	koff [1] [s⁻¹]	kon [1] [M⁻¹ s⁻¹]	Kd [4] [nM]	koff [4] [s⁻¹]	kon [4] [M⁻¹ s⁻¹]	Kd [5] [nM]	koff [5] [s⁻¹]	kon [5] [M⁻¹ s⁻¹]	Kd [6] [nM]	koff [6] [s⁻¹]	kon [6] [M⁻¹ s⁻¹]	further results
B1	< 0.001	< 1e-07	244000	< 0.001	< 1e-07	46800	–	–	–	–	–	–	Kd [2]: < 0.001 nM; koff [2]: < 1e-07 s⁻¹; kon [2]: 40500 M⁻¹ s⁻¹; Kd [3]: < 0.001 nM; koff [3]: < 1e-07 s⁻¹; kon [3]: 32200 M⁻¹ s⁻¹
B2	–	–	–	–	–	–	< 0.001	< 1e-07	244000	< 0.001	< 1e-07	46800	Kd [7]: < 0.001 nM; koff [7]: < 1e-07 s⁻¹; kon [7]: 32200 M⁻¹ s⁻¹; Kd [8]: < 0.001 nM; koff [8]: < 1e-07 s⁻¹; kon [8]: 40400 M⁻¹ s⁻¹
B3	20.8	0.000914	44000	1280	0.0412	32100	–	–	–	–	–	–	Kd [9]: 28.6 nM; koff [9]: 0.0048 s⁻¹; kon [9]: 168000 M⁻¹ s⁻¹; Kd [10]: 19.9 nM; koff [10]: 0.00113 s⁻¹; kon [10]: 56600 M⁻¹ s⁻¹
B4	–	–	–	–	–	–	20.8	0.000914	44000	1280	0.0412	32100	Kd [11]: 19.9 nM; koff [11]: 0.00112 s⁻¹; kon [11]: 56600 M⁻¹ s⁻¹; Kd [12]: 28.6 nM; koff [12]: 0.0048 s⁻¹; kon [12]: 168000 M⁻¹ s⁻¹
